These results are taken from publication PMC11302929.

“And” between values parts separate entries of the source, which are not always exact repeats. Equal values may be shown once.

In assay [1] the target is recombinant soluble NDV HN ectodomain including the stalk domain, without oligomerization domain (HN-M) (Newcastle disease virus). The experiment in a line: SEC; Superdex 200 Increase 10/300 GL column, freshly purified NDV HN proteins. (SEC sorts molecules by how far they enter the pores of the column.)
Assay [2] deals with recombinant soluble NDV HN ectodomain with tetrabrachion tetramerization domain (HN-TE) (not stated | Newcastle disease virus). Described as above.

“recombinant soluble NDV HN ectodomain including the stalk domain, without oligomerization domain (HN-M) (domain or fragment)”: the stoichiometry N in assay [1] was 2 and 4.

For the substance “recombinant soluble NDV HN ectodomain with tetrabrachion tetramerization domain (HN-TE)”, in assay [2], the stoichiometry N stood at 4.

A word on the stoichiometry N: it is the number of molecules, sites or subunits per partner or assembly.
